# In US7166733B2, “O,O'-Amidomalonate and N,O-Amidomalonate platinum complexes” (priority 2000, dated 2007):
# “And” between values parts separate entries of the source, which are not always exact repeats. Equal entries are not always repeated.
# Experiment: Percent Pt released versus pH over time in citrate PBS
# Assay type: physicochemical
# Details: 37° C.
# Description: A stock solution of citrate PBS that was 10 mM in citrate, 20 mM in phosphate, and 100 mM in NaCl was prepared and split into bottles which were then adjusted to the desired pH. The bottles were warmed to 37° C. in an oven and poly(HPMA)-GFLG-Ama=Pt(NH3)2, N,O-chelate, ˜20 kDa, was added to give a concentration of approximately 2 mg of polymer platinum conjugate per mL buffer. The mixtures were well mixed to give colorless solutions. At the indicated times, three approximately 2.5 mL aliquots were removed from the solution at each pH and transferred to previously washed YM-3 ultracentrifuge devices (Amicon) and spun at 5000 RCF and 37° C. for 50 min. Once all samples for all time points have been collected and prepared, the filtrates and stock solutions are analyzed against Pt standards (0–10 ppm) by ICP-OES at the platinum emission line of 214.42 nm. For each time point and at each pH, three samples were prepared and analyzed.
substance,measurement,setting,value
"poly(HPMA)-GFLG-Ama=Pt(NH3)2, N,O—Pt chelate [Example 4]",percent Pt released,"pH 3.4, citrate PBS, 1 h",2.0%
same,percent Pt released,"pH 3.4, citrate PBS, 2 h",4.2 ± 0.1%
same,percent Pt released,"pH 3.4, citrate PBS, 4 h",6.6%
same,percent Pt released,"pH 3.4, citrate PBS, 8 h, 100% N,O-chelate, approx. 20 kDa",12% and 12.0 ± 0.1%
same,percent Pt released,"pH 3.4, citrate PBS, 24 h, 100% N,O-chelate, approx. 20 kDa",30% and 29.1 ± 3.9%
same,percent Pt released,"pH 4.4, citrate PBS, 1 h",0.9 ± 0.1%
same,percent Pt released,"pH 4.4, citrate PBS, 2 h",1.9%
same,percent Pt released,"pH 4.4, citrate PBS, 4 h",3.3 ± 0.4%
same,percent Pt released,"pH 4.4, citrate PBS, 8 h",5.1 ± 1.2%
same,percent Pt released,"pH 4.4, citrate PBS, 24 h",17.0 ± 3.6%
same,percent Pt released,"pH 5.4, citrate PBS, 1 h",0.5%
same,percent Pt released,"pH 5.4, citrate PBS, 2 h",0.9 ± 0.08%
same,percent Pt released,"pH 5.4, citrate PBS, 4 h",1.4 ± 0.2%
same,percent Pt released,"pH 5.4, citrate PBS, 8 h",2.6 ± 0.4%
same,percent Pt released,"pH 5.4, citrate PBS, 24 h",7.3%
same,percent Pt released,"pH 6.4, citrate PBS, 1 h",0.4%
same,percent Pt released,"pH 6.4, citrate PBS, 2 h",0.7 ± 0.07%
same,percent Pt released,"pH 6.4, citrate PBS, 4 h",0.9 ± 0.06%
same,percent Pt released,"pH 6.4, citrate PBS, 8 h",1.3 ± 0.1%
same,percent Pt released,"pH 6.4, citrate PBS, 24 h",2.7 ± 0.1%
same,percent Pt released,"pH 7.4, citrate PBS, 1 h",0.36 ± 0.01%
same,percent Pt released,"pH 7.4, citrate PBS, 2 h",0.5 ± 0.07%
same,percent Pt released,"pH 7.4, citrate PBS, 4 h",0.7 ± 0.04%
same,percent Pt released,"pH 7.4, citrate PBS, 8 h",0.9 ± 0.02%
same,percent Pt released,"pH 7.4, citrate PBS, 24 h",1.6 ± 0.0%
same,percent Pt released,"pH 8.2, citrate PBS, 1 h",0.39 ± 0.0%
same,percent Pt released,"pH 8.2, citrate PBS, 2 h",0.7 ± 0.08%
same,percent Pt released,"pH 8.2, citrate PBS, 4 h",0.7 ± 0.04%
same,percent Pt released,"pH 8.2, citrate PBS, 8 h",0.8 ± 0.16%
same,percent Pt released,"pH 8.2, citrate PBS, 24 h",1.8 ± 0.02%
